As a reminder, the Kd is the constant that tells how readily two partners part at equilibrium. The koff is the first-order rate constant of dissociation. A word on the kon: it is the rate constant with which the complex forms.

The record followed here is paper PMC5344418, “Directed evolution of a soluble human DR3 receptor for the inhibition of TL1A induced cytokine secretion” (PLoS ONE, 2017).

Assay in all cases: SPR; ProteOn XPR36; DR3 variants (5 ug, acetate buffer pH 5.5) immobilised on a GLC chip, BSA as reference; TL1A run at 100, 50, 25, 12.5 and 6.25 nM, 30 ul/min, 300 s, 10 min dissociation; PBS with 2 mM DTT; Langmuir single binding site model
A general note: In SPR one partner is held on a chip, and binding of the other changes the refractive index at the surface.

The target of experiment [1] is DR3 variant H3 (DR3 extracellular domain-Fc) (human) (UniProt Q93038).
Experiment [2] has as its target DR3 variant O6 (DR3 extracellular domain-Fc) (human) (UniProt Q93038).
Experiment [3] has as its target T1, TNF-like 1A (TL1A) (UniProt O95150 72-251).
T1 construct: TL1A (TNF-like 1A), the cytokine run over immobilised DR3 variants in SPR and added to cells; also called TL1A cytokine
T1 sequence (looked up): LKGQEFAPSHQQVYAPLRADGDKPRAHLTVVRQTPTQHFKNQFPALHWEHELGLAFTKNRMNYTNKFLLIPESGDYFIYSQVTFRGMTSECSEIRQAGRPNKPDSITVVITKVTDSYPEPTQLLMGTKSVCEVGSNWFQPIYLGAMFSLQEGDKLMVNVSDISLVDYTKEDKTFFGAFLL
To be noted: both partners purified.

In experiment [1], “TNF-like 1A (TL1A) (from UniProt O95150 72-251) (ligand)” came in with a dissociation constant Kd of 8.26 nM, a koff of 0.000351 s⁻¹ and a kon of 42600 M⁻¹ s⁻¹. In experiment [2], the dissociation constant (Kd) amounted to 9.83 nM, the koff was 0.000357 s⁻¹ and the on-rate constant (kon) worked out at 36300 M⁻¹ s⁻¹.

B1: native DR3-Fc (human DR3 extracellular domain fused with human IgG1 Fc) (Fc fusion, UniProt Q93038 25-199, looked up)
chain: QGGTRSPRCDCAGDFHKKIGLFCCRGCPAGHYLKAPCTEPCGNSTCLVCPQDTFLAWENHHNSECARCQACDEQASQVALENCSAVADTRCGCKPGWFVECQVSQCVSSSPFYCQPCLDCGALHRHTRLLCSRRDTDCGTCLPGFYEHGDGCVSCPTSTLGSCPERCAAVCGWRQ
modifications: N-linked glycosylation (shown by Endo-H cleavage)
notes: amplified from an EST cDNA clone (Open Biosystems); pFUSE vector (Invivogen); also called WT; soluble native DR3; source: HEK293T, transfected, conditioned medium (ELISA screen); 293F (HEK293F), transfected, purified (MonoQ, SP, butyl HIC); not shown: Fc (human IgG1), C-terminal, kept
In experiment [3], B1 registered an equilibrium dissociation constant (Kd) of 44.9 nM, a dissociation rate constant (koff) of 0.00072 s⁻¹ and an on-rate constant (kon) of 16000 M⁻¹ s⁻¹.
